Test results reported in patent US20220372114A1 (CURIA IP, published 2022).
“And” between values parts separate entries of the source, which are not always exact repeats. Identical values can stand only once.

B1: 10-B13-A (human Fc IgG2 chimera) (antibody, V domains shown)
VH: QVQLQQSGAELVKPGASVKISCKASGYAFSNYWMNWVKQRPGKGLEWIGQIYPGDGDTNYNGNFKGKATLTADKSSSTAYIQLSSLTSEDSAVYFCGRGFIATVVEVFDHWGLGTTLTVSS
VL: DIQMTQTTSSLSASLGDRVTISCRASQDISNYLNWYQQKPDGTVKLLIYYTSRLQSGVPSRFSGSGTGTDYSLTISNLEQEDIATYFCQQGNTLPWTFGGGTKLEIK
B2: 10-B13-A (antibody, V domains shown)
VH: B1 VH
VL: B1 VL

Tests used:
[1] = target: SARS-CoV-1 spike on pseudovirus (SARS-CoV-1, UniProt P59594 14-1255); test: cell-based or functional assay
[2] = target: T1, SARS-CoV-1 spike trimer (SARS-CoV-1, UniProt P59594 14-1195); test: ELISA, plate-coated SARS-CoV-1 spike, purified mouse antibody
[3] = target: T1, SARS-CoV-1 spike trimer; test: ELISA, plate-coated SARS-CoV-1 spike

Binder	IC50, SARS-CoV-1 pseudovirus ACE2+TMPRSS2+ target cell infection assay [1]	EC50 [2]	EC50 [3]
B1	~33 ug/ml and ~220 nM	–	–
B2	–	960 pM	~1000 pM
